Data: article PMC9482650, “Quantitative fragmentomics allow affinity mapping of interactomes” (Nature Communications, 2022)

How the values were obtained:
Assay in all cases: holdup assay
Parameters in all cases: key: below the threshold = too weak to quantify, mostly under pKd 3.1 to 4
Conditions in all cases: plain residues with an end cap or a label only (N-terminal biotin on a linker: ado-ado)
MAGI2_6, Q86UL8 = molecular target: MAGI2_6, Q86UL8
GRIP1_5, Q9Y3R0 = molecular target: T1, GRIP1_5, Q9Y3R0
T1 sequence (Q9Y3R0 568-668, limits assumed, looked up): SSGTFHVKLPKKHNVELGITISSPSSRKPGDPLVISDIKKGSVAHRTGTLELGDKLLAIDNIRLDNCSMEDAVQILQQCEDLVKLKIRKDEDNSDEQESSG

DLG4_2, P78352 = molecular target: DLG4_2, P78352
NHERF3_4, Q5T2W1 = molecular target: T2, NHERF3_4, Q5T2W1
T2 sequence (Q5T2W1 373-468, limits assumed, looked up): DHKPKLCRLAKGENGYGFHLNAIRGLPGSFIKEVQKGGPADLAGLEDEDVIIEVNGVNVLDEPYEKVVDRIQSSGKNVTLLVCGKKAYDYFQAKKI

PTPN3, P26045 = molecular target: PTPN3, P26045
DLG1_1, Q12959 = molecular target: DLG1_1, Q12959
LIMK2, P53671 = molecular target: LIMK2, P53671
Inadl_1, Q8NI35 = molecular target: Inadl_1, Q8NI35
Inadl_9, Q8NI35 = molecular target: Inadl_9, Q8NI35
LNX1_1, Q8TBB1 = molecular target: LNX1_1, Q8TBB1
MPDZ_12, O75970 = molecular target: T3, MPDZ_12, O75970
T3 sequence (O75970 1857-1958, limits assumed, looked up): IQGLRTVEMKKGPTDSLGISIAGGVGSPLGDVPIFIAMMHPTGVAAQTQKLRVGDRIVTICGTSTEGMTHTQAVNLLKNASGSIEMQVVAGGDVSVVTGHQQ

DLG4_3, P78352 = molecular target: DLG4_3, P78352
APBA3_1, O96018 = molecular target: T4, APBA3_1, O96018
T4 sequence (O96018 389-490, limits assumed, looked up): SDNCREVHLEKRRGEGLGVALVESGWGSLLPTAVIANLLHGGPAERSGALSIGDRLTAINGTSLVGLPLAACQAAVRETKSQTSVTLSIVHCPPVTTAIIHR

AHNAK1, Q09666 = molecular target: AHNAK1, Q09666
PDZD7_3, Q9H5P4 = molecular target: T5, PDZD7_3, Q9H5P4
T5 sequence (Q9H5P4 857-944, limits assumed, looked up): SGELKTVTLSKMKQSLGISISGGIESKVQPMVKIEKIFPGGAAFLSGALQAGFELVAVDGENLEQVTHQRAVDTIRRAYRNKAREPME

LNX2_2, Q8N448 = molecular target: T6, LNX2_2, Q8N448
T6 sequence (Q8N448 334-432, limits assumed, looked up): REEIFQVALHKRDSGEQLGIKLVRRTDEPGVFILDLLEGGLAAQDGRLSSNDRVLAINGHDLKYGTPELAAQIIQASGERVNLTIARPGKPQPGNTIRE

PTPN13_1, Q12923 = molecular target: T7, PTPN13_1, Q12923
T7 sequence (Q12923 1088-1188, limits assumed, looked up): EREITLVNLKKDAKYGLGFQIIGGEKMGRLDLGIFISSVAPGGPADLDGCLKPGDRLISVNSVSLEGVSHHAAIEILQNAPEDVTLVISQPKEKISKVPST

DLG2_2, Q15700 = molecular target: DLG2_2, Q15700
RAPGEF6, Q8TEU7 = molecular target: T8, RAPGEF6, Q8TEU7
T8 sequence (Q8TEU7 525-625, limits assumed, looked up): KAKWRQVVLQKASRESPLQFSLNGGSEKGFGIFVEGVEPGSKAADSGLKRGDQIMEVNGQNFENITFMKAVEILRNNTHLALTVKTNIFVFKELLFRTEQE

SHANK1, Q9Y566 = molecular target: T9, SHANK1, Q9Y566
T9 sequence (Q9Y566 658-767, limits assumed, looked up): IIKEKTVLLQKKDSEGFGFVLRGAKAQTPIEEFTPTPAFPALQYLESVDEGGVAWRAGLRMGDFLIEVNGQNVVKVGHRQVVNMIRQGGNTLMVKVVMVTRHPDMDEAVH

MAGI2_5, Q86UL8 = molecular target: MAGI2_5, Q86UL8
FRMPD4, Q14CM0 = molecular target: FRMPD4, Q14CM0
Inadl_3, Q8NI35 = molecular target: Inadl_3, Q8NI35
PDZRN4_1, Q6ZMN7 = molecular target: PDZRN4_1, Q6ZMN7
HTRA4, P83105 = molecular target: T10, HTRA4, P83105
T10 sequence (P83105 378-476, limits assumed, looked up): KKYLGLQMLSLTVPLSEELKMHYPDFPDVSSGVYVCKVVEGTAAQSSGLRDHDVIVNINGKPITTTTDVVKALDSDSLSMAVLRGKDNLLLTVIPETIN

APBA2_2, Q99767 = molecular target: T11, APBA2_2, Q99767
T11 sequence (Q99767 654-744, limits assumed, looked up): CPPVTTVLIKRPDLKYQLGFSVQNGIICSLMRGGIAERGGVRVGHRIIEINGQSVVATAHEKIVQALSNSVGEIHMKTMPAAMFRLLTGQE

LNX1_2, Q8TBB1 = molecular target: LNX1_2, Q8TBB1
Chain of LNX1_2, Q8TBB1 (Q8TBB1 371-470): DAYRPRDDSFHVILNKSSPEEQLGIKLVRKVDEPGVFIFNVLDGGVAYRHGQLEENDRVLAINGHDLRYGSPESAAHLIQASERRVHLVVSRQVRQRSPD

Chain of DLG4_2, P78352 (P78352 155-259): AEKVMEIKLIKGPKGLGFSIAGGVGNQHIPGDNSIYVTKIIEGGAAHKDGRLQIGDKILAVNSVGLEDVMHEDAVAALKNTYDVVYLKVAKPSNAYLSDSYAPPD
Chain of LNX1_1, Q8TBB1 (Q8TBB1 261-371): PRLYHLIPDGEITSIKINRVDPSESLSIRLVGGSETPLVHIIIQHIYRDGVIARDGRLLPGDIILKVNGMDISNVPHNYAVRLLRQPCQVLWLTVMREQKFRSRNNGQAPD
Chain of PTPN3, P26045 (P26045 505-587): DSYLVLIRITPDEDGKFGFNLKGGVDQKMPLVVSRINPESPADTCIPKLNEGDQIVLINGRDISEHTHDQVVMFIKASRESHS
Chain of Inadl_1, Q8NI35 (Q8NI35 113-229): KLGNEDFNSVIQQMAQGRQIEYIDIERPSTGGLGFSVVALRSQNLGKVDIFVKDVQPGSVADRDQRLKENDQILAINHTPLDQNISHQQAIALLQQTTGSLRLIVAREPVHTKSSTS
Chain of Inadl_3, Q8NI35 (Q8NI35 359-469): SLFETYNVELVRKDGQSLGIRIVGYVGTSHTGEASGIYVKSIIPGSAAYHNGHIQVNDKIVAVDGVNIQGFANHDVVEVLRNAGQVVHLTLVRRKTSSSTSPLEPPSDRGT
Chain of DLG2_2, Q15700 (Q15700 189-283): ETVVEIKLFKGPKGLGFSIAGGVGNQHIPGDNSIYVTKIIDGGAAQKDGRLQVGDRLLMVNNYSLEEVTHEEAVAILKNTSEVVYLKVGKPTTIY
Chain of LIMK2, P53671 (P53671 143-248): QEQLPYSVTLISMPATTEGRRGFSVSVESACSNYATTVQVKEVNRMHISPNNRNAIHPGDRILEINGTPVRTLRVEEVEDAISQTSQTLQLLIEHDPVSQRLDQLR
Chain of MAGI2_5, Q86UL8 (Q86UL8 915-1017): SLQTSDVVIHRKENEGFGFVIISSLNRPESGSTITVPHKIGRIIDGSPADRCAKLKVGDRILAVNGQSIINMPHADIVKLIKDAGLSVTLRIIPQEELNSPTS
Chain of FRMPD4, Q14CM0 (Q14CM0 67-160): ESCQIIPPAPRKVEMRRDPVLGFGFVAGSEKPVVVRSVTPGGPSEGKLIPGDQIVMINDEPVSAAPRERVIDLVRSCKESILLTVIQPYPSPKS
Chain of MAGI2_6, Q86UL8 (Q86UL8 1141-1229): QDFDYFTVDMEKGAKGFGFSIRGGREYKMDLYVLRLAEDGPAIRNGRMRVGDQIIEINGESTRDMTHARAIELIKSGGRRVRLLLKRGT
Chain of PDZRN4_1, Q6ZMN7 (Q6ZMN7 213-318): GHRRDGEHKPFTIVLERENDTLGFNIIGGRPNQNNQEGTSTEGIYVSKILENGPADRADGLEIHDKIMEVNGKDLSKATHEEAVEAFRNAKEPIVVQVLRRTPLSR
Chain of Inadl_9, Q8NI35 (Q8NI35 1530-1615): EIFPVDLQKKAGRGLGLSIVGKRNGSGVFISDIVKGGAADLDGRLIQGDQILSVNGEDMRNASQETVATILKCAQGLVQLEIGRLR
Chain of AHNAK1, Q09666 (Q09666 4-100): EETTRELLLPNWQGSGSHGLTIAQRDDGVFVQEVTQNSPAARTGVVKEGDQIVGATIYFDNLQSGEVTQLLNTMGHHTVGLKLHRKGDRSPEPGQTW
Chain of DLG4_3, P78352 (P78352 306-403): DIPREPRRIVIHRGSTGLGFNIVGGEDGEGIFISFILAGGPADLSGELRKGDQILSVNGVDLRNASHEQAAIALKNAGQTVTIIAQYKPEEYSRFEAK

MQHQRTHTRV [ZSCAN30, Q86W11]
pKd (MAGI2_6, Q86UL8): below the threshold | pKd (GRIP1_5, Q9Y3R0): below the threshold | pKd (DLG4_2, P78352): 4.95 | pKd (NHERF3_4, Q5T2W1): 3.51 | pKd (PTPN3, P26045): below the threshold | pKd (DLG1_1, Q12959): 4.41 | pKd (LIMK2, P53671): below the threshold | pKd (Inadl_1, Q8NI35): below the threshold | pKd (Inadl_9, Q8NI35): 3.62 | pKd (LNX1_1, Q8TBB1): 3.49 | pKd (MPDZ_12, O75970): below the threshold | pKd (DLG4_3, P78352): 4.22 | pKd (APBA3_1, O96018): below the threshold | pKd (AHNAK1, Q09666): below the threshold | pKd (PDZD7_3, Q9H5P4): 4.37 | pKd (LNX2_2, Q8N448): 4.47 | pKd (PTPN13_1, Q12923): below the threshold | pKd (DLG2_2, Q15700): 4.76 | pKd (RAPGEF6, Q8TEU7): below the threshold | pKd (SHANK1, Q9Y566): 4.08 | pKd (MAGI2_5, Q86UL8): 3.64 | pKd (FRMPD4, Q14CM0): below the threshold | pKd (Inadl_3, Q8NI35): below the threshold | pKd (PDZRN4_1, Q6ZMN7): below the threshold | pKd (HTRA4, P83105): below the threshold | pKd (APBA2_2, Q99767): below the threshold | pKd (LNX1_2, Q8TBB1): 3.58

NIAESLESLV [PTPRZ1, P23471]
pKd (MAGI2_6, Q86UL8): 3.96 | pKd (GRIP1_5, Q9Y3R0): below the threshold | pKd (DLG4_2, P78352): 5.09 | pKd (NHERF3_4, Q5T2W1): below the threshold | pKd (PTPN3, P26045): 4.64 | pKd (DLG1_1, Q12959): 4.57 | pKd (LIMK2, P53671): below the threshold | pKd (Inadl_1, Q8NI35): below the threshold | pKd (Inadl_9, Q8NI35): 3.76 | pKd (LNX1_1, Q8TBB1): 4.36 | pKd (MPDZ_12, O75970): below the threshold | pKd (DLG4_3, P78352): below the threshold | pKd (APBA3_1, O96018): below the threshold | pKd (AHNAK1, Q09666): below the threshold | pKd (PDZD7_3, Q9H5P4): 4.7 | pKd (LNX2_2, Q8N448): 4.05 | pKd (PTPN13_1, Q12923): below the threshold | pKd (DLG2_2, Q15700): 4.72 | pKd (RAPGEF6, Q8TEU7): below the threshold | pKd (SHANK1, Q9Y566): below the threshold | pKd (MAGI2_5, Q86UL8): 5.47 | pKd (FRMPD4, Q14CM0): below the threshold | pKd (Inadl_3, Q8NI35): 4.13 | pKd (PDZRN4_1, Q6ZMN7): 3.99 | pKd (HTRA4, P83105): below the threshold | pKd (APBA2_2, Q99767): below the threshold | pKd (LNX1_2, Q8TBB1): below the threshold

LESTTVGTSV [KARS1, Q15046]
pKd (MAGI2_6, Q86UL8): 4.32 | pKd (GRIP1_5, Q9Y3R0): below the threshold | pKd (DLG4_2, P78352): 4.35 | pKd (NHERF3_4, Q5T2W1): below the threshold | pKd (PTPN3, P26045): 4.82 | pKd (DLG1_1, Q12959): 4.27 | pKd (LIMK2, P53671): below the threshold | pKd (Inadl_1, Q8NI35): below the threshold | pKd (Inadl_9, Q8NI35): 3.67 | pKd (LNX1_1, Q8TBB1): 3.97 | pKd (MPDZ_12, O75970): 3.62 | pKd (DLG4_3, P78352): 3.58 | pKd (APBA3_1, O96018): below the threshold | pKd (AHNAK1, Q09666): below the threshold | pKd (PDZD7_3, Q9H5P4): 3.82 | pKd (LNX2_2, Q8N448): 4.39 | pKd (PTPN13_1, Q12923): below the threshold | pKd (DLG2_2, Q15700): 4.06 | pKd (RAPGEF6, Q8TEU7): below the threshold | pKd (SHANK1, Q9Y566): 3.71 | pKd (MAGI2_5, Q86UL8): 4.06 | pKd (FRMPD4, Q14CM0): below the threshold | pKd (Inadl_3, Q8NI35): below the threshold | pKd (PDZRN4_1, Q6ZMN7): 4.29 | pKd (HTRA4, P83105): below the threshold | pKd (APBA2_2, Q99767): below the threshold | pKd (LNX1_2, Q8TBB1): below the threshold

VKRNSKETVV [MARCHF3, Q86UD3]
pKd (MAGI2_6, Q86UL8): below the threshold | pKd (GRIP1_5, Q9Y3R0): below the threshold | pKd (DLG4_2, P78352): 6.03 | pKd (NHERF3_4, Q5T2W1): below the threshold | pKd (PTPN3, P26045): 4.79 | pKd (DLG1_1, Q12959): 5.48 | pKd (LIMK2, P53671): below the threshold | pKd (Inadl_1, Q8NI35): below the threshold | pKd (Inadl_9, Q8NI35): below the threshold | pKd (LNX1_1, Q8TBB1): below the threshold | pKd (MPDZ_12, O75970): below the threshold | pKd (DLG4_3, P78352): 4.94 | pKd (APBA3_1, O96018): below the threshold | pKd (AHNAK1, Q09666): below the threshold | pKd (PDZD7_3, Q9H5P4): 4.82 | pKd (LNX2_2, Q8N448): 5.2 | pKd (PTPN13_1, Q12923): 3.53 | pKd (DLG2_2, Q15700): 6.12 | pKd (RAPGEF6, Q8TEU7): below the threshold | pKd (SHANK1, Q9Y566): below the threshold | pKd (MAGI2_5, Q86UL8): 3.98 | pKd (FRMPD4, Q14CM0): below the threshold | pKd (Inadl_3, Q8NI35): 3.49 | pKd (PDZRN4_1, Q6ZMN7): below the threshold | pKd (HTRA4, P83105): below the threshold | pKd (APBA2_2, Q99767): below the threshold | pKd (LNX1_2, Q8TBB1): 3.68

ILRKSTTTTV [PRR16, Q569H4]
pKd (MAGI2_6, Q86UL8): below the threshold | pKd (GRIP1_5, Q9Y3R0): below the threshold | pKd (DLG4_2, P78352): 5.2 | pKd (NHERF3_4, Q5T2W1): below the threshold | pKd (PTPN3, P26045): 3.92 | pKd (DLG1_1, Q12959): 4.76 | pKd (LIMK2, P53671): below the threshold | pKd (Inadl_1, Q8NI35): below the threshold | pKd (Inadl_9, Q8NI35): below the threshold | pKd (LNX1_1, Q8TBB1): below the threshold | pKd (MPDZ_12, O75970): below the threshold | pKd (DLG4_3, P78352): 4.12 | pKd (APBA3_1, O96018): below the threshold | pKd (AHNAK1, Q09666): below the threshold | pKd (PDZD7_3, Q9H5P4): 4.67 | pKd (LNX2_2, Q8N448): 4.84 | pKd (PTPN13_1, Q12923): below the threshold | pKd (DLG2_2, Q15700): 5.17 | pKd (RAPGEF6, Q8TEU7): below the threshold | pKd (SHANK1, Q9Y566): below the threshold | pKd (MAGI2_5, Q86UL8): below the threshold | pKd (FRMPD4, Q14CM0): below the threshold | pKd (Inadl_3, Q8NI35): below the threshold | pKd (PDZRN4_1, Q6ZMN7): below the threshold | pKd (HTRA4, P83105): 4.12 | pKd (APBA2_2, Q99767): below the threshold | pKd (LNX1_2, Q8TBB1): 3.8
